Assay results published in paper PMC11959277, “Trichocystatin-2 from Trichomonas vaginalis: role of N-terminal cysteines in aggregation, protease inhibition, and trichomonal cysteine protease-dependent cytotoxicity on HeLa cells” (Frontiers in Parasitology, 2025).
Values joined by “and” are separate entries in the source; they are usually repeats but may differ in a detail not shown here. Identical values can stand only once.

Assays:
[1] = target: recombinant TC-2Δ11 deletion mutant (rTC-2Δ11) (Trichomonas vaginalis) (UniProt A2FXT2); assay: SEC; analytical SEC, Superdex 200 pg HiLoad 26/600, 5 mg protein loaded, 50 mM Tris-HCl pH 8.0, 100 mM NaCl, 0.02% NaN3, room temperature (23-25°C); samples stored 1 month at 4°C
[2] = target: recombinant TC-2Δ11 deletion mutant (rTC-2Δ11) (Trichomonas vaginalis) (UniProt A2FXT2); assay: SEC; analytical SEC, Superdex 200 pg HiLoad 26/600, 5 mg protein loaded, 50 mM Tris-HCl pH 8.0, 100 mM NaCl, 0.02% NaN3, room temperature (23-25°C); samples stored 3 months at 4°C
[3] = target: the molecule itself; assay: as above
A2FXT2 = assay: SEC; analytical SEC, Superdex 200 pg HiLoad 26/600, 5 mg protein loaded, 50 mM Tris-HCl pH 8.0, 100 mM NaCl, 0.02% NaN3, room temperature (23-25°C); samples stored 1 month at 4°C
[4] = target: the molecule itself; assay: as above

| Molecule | Area (%) of the dimer peak [1] [%] | stoichiometry N [1] | Area (%) of the dimer peak [2] [%] | stoichiometry N [2] | stoichiometry N [3] | Area (%) of the peak of high molecular weight aggregates (A2FXT2) [%] | stoichiometry N [4] |
| --- | --- | --- | --- | --- | --- | --- | --- |
| recombinant TC-2Δ11 deletion mutant (rTC-2Δ11) (from UniProt A2FXT2 12-91) (domain or fragment) | 19.5 | 2 | 25.8 | 2 |  |  |  |
| recombinant wild-type trichocystatin-2 (rTC-2) (natural protein, trichocystatin-2 (TC-2), Trichomonas vaginalis, TrichDB TVAG_272260; 10-kDa cystatin of the stefin type; the TC-2 gene cloned in pCold I as in Puente-Rivera et al., 2014; No tag removal is described; Mixture of monomer, dimer and higher forms in SEC) MSCGGGCCCGAAKPANVQDEHVIQAFKDAIALGNQKNGTTLEYIQLLSATQKVVSGYIFEGVVKTNDGDYKVKIWCKPGNTEKELQLFEKA |  |  |  |  | 2 and 4 | 2.2 | 2 |
